Data from article PMC11799418.

Key:
[1] = target: Endophilin B1 (human) (UniProt Q9Y371); test: cryo-EM structure; endophilin B1 incubated with MSP2N2 nanodiscs at molar ratio 1:2 (MSP2N2:endophilin B1); cryo-EM data split into 2 classes
[2] = target: Endophilin B1 (human) (UniProt Q9Y371); test: SAXS; in solution, 8 and 16 μM endophilin B1 (0.34 and 0.69 mg/ml); 150 mM NaCl, 20 mM HEPES, 1 mM TCEP, 0.5 mM DTT, pH 8.1, 4 °C; monomer to dimer
[3] = target: Endophilin B1 (human) (UniProt Q9Y371); test: cryo-EM structure; endophilin B1 incubated with His6-MSP2N2 nanodiscs (90% DOPS, 10% 14:0 cardiolipin), molar ratio 1:10 (MSP2N2:endophilin B1), SEC peak vitrified; single-particle reconstruction of membrane-bound endophilin B1 on bicelles, cryoSPARC and cryoDRGN

- stoichiometry N [1]: 2
- stoichiometry N [2]: 2
- dimers bound per bicelle [3]: 6 dimers
Substance: Endophilin B1 (from UniProt Q9Y371 1-365) (natural protein)
